# Values of other authors as cited in patent publication US20200031943A1 (priority 2017, published 2020).
# Like-named read-outs stand apart in the source and are kept apart here.
# Conditions: for percentage of patients reported as developing influenza / upper respiratory infections (percentage of patients): SLE patients; for percentage of patients reported as developing influenza: placebo 2.0%; for upper respiratory infections (percentage of patients): placebo 28.7%
# [1] = 300 mg intravenous every 4 weeks for 48 weeks
# [2] = 1,000 mg intravenous every 4 weeks for 48 weeks
substance,measurement,setting,value
anifrolumab,percentage of patients reported as developing influenza,[1],6.1%
same,upper respiratory infections (percentage of patients),[1],36.4%
same,incidence of serious adverse events,"300 mg or 1,000 mg intravenous every 4 weeks for 48 weeks vs placebo",did not increase the incidence of serious adverse events
same,percentage of patients reported as developing influenza,[2],7.6%
same,upper respiratory infections (percentage of patients),[2],41.9%
same,frequency of herpes zoster and influenza infections,anifrolumab-treatment group vs placebo,slightly more frequent
